US20160237160A1 (Bayer, published 2016)
Numbering of substitutions follows the chain as printed.

B1: TPP-1853 (antibody, human IgG1, kappa, V domains shown)
VH: EVQLLESGGGLVQPGGSLRLSCAASGFTFSPYPMMWVRQAPGKGLEWVSYISPSGGKTHYADSVKGRFTISRDNSKNTLYLQMNSLRAEDTAVYYCARGGDTYFDYFDYWGQGTLVTVSS
VL: DIQMTQSPATLSASVGDRVTITCRASQSISSYLNWYQQKPGKAPKLLIYNASSLQSGVPSRFSGSGSGTDFTLTISSLQPEDFATYYCQQSYTSPGITFGPGTKVEIKR
notes: Human IgG1
B2: TPP-1854 (antibody, human IgG1, kappa, V domains shown)
VH: B1 VH with M35I
VL: B1 VL with S31G, G96F
notes: Human IgG1
B3: TPP-1857 (antibody, human IgG1, kappa, V domains shown)
VH: B1 VH
VL: B1 VL with S31G
notes: Human IgG1
B4: TPP-1858 (antibody, human IgG1, kappa, V domains shown)
VH: B1 VH
VL: B1 VL with G96F
notes: Human IgG1
B5: TPP-2093 (antibody, human IgG1, kappa, V domains shown)
VH: B1 VH with K57S
VL: B1 VL with A9S, T10S, N50Q, G96F, P101Q
notes: Human IgG1
B6: TPP-883 (antibody, human IgG1, kappa, V domains shown)
VH: B1 VH with T102G
VL: B1 VL with N50A, T93S
notes: Human IgG1; parent antibody from the phage library
B7: P3G5(TPP-2195) (antibody, mouse IgG2a, kappa, V domains shown)
VH: QVQLQQSGPEVVRPGVSVKISCKGSGYTFTDYGIHWVKQSHAKSLEWIGVISTYNGYTNYNQKFKGKATMTVDKSSSTAYMELARLTSEDSAIYYCARAYYGNLYYAMDYWGQGTSVTVSS
VL: DIVLTQSPASLAVSLGQRATISCRANKSVSTSSYSYMHWYQQKPGQPPKLLIKYASNLESGVPARFSGSGSGTDFILNIHPVEEEDAATYYCQHSRELPFTFGSGTKLEIKR
notes: Murine IgG2a; variable domains from WO2009/140177 with constant region added
B8: TPP-2148 (antibody, human IgG1, kappa, V domains shown)
VH: B1 VH
VL: B1 VL with N50Q, G96F
notes: Human IgG1
B9: TPP-2149 (antibody, human IgG1, kappa, V domains shown)
VH: B1 VH with M35I
VL: B1 VL with S31G, N50Q, G96F
notes: Human IgG1
B10: 18.3.3(TPP-2193) (antibody, mouse IgG2a, kappa, V domains shown)
VH: EVKLGESGGGLVQPGGSMKLSCVASGFPFTKYWMNWVRQSPEKGLEWVAEIRLKSDNYATHYAESAKGRFTISRDDSRSSVYLQMNNLRAEDTAIYYCSPTYADTMDYWGQGTSVTVSS
VL: DIVLTQSPASLAVSLGQRATISCKASQSVSTSTYSYMQWYQQRPGQSPKLLIKYASKLDSGVPARFSGSGSGTDFTLNIHPVEEEDTATYYCQHSWELPYTFGGGTRLEIKR
notes: Murine IgG2a; variable domains from WO2009/020933 with constant region added
B11: ITEM-4 (antibody, V domains shown)
VH: QVQLQQSGPELVKPGASVKMSCKASGYTFTDFIIAWVKQRTGQGLEWIGEIYPGTGRTYYSEKFRGKATLTADKSSNTAYMQLSSLTSVDSAVYFCARRTIYYDYDGDYWGQGTTLTVSS
VL: DIVMTQAAFSNPVTLGTSASISCRSSKSLLHSNGITYLYWYLQKPGQSPQLLIYQMSNLASGVPDRFSSSGSGTDFTLRISRVEAEDVGVYYCAHNLELPWTFGGGTKLELK

Key:
[1] = target: T1, TWEAKR (TNFRSF12A, FN14), human, on tumor cell lines (human, UniProt Q9NP84 28-129); assay: cell-based or functional assay
[2] = target: T2, TPP-2614 (TweakR-ECD-34-68-hIgGFc-His-D47A) (human); assay: ELISA, IgG coated 1 ug/ml, TWEAKR variant 250 ng/ml, anti-HIS HRP (FIG. 6C)
T2 construct: also called D47A TWEAKR mutein
Method: Antibodies were coated (1 μg/ml), TWEAKR variant was added at 250 ng/ml, detection via anti-HIS HRP. […] Antibodies were coated (1 μg/ml), TWEAKR variant was added 250 ng/ml, detection via anti-HIS HRP.

[3] = target: T1, TWEAKR (TNFRSF12A, FN14), human, on …; assay: cell-based or functional assay; remark: listed apart in the source
[4] = target: T1, TWEAKR (TNFRSF12A, FN14), human, on …; assay: cell-based or functional assay; remark: listed apart in the source
[5] = target: T1, TWEAKR (TNFRSF12A, FN14), human, on …; assay: FACS, A375 cells, 10 ug/ml
Method: (§1) To determine the binding characteristics of the anti-TWEAKR antibodies on mouse and human cancer cell lines, binding was tested by flow cytometry to a panel of cell lines. […] Cells were suspended at approximately 10⁵ cells/well in FACS buffer (PBS without Ca/Mg, containing 3% FCS, Biochrom). Cells were centrifuged (250 g, 5 min, 4° C.) and supernatant discarded. Cells were resuspended in dilutions of the antibodies of interest (10 μg/ml in 80 μl if not indicated otherwise) in FACS buffer, and incubated on ice for 1 h. […] After incubation for 1 h on ice cells were again washed with cold FACS buffer, resuspended in 1000 FACS buffer and analyzed by flow cytometry using a FACS-Array (BD Biosciences). Results are calculated as Geo Mean of fluorescence detected by the antibody of interest subtracted by background fluorescence as measured by detection with the secondary antibody alone. Values are scored according to the following system: Geo Mean−Geo Mean of secondary antibody alone >10: +, >100: ++, >1000: +++, 10000: ++++, close to category border in ( ).

[6] = target: T1, TWEAKR (TNFRSF12A, FN14), human, on …; assay: FACS, HT29 cells, 10 ug/ml
Method: as §1

[7] = target: T1, TWEAKR (TNFRSF12A, FN14), human, on …; assay: FACS, WiDr cells, 10 ug/ml
Method: as §1

[8] = target: T1, TWEAKR (TNFRSF12A, FN14), human, on …; assay: FACS, 786-O cells, 10 ug/ml
Method: as §1

[9] = target: T1, TWEAKR (TNFRSF12A, FN14), human, on …; assay: FACS, SKOV-3 cells, 10 ug/ml
Method: as §1

[10] = target: T1, TWEAKR (TNFRSF12A, FN14), human, on …; assay: FACS, NCI-H322 cells, 10 ug/ml
Method: as §1

[11] = target: T3, TPP-2305 (hTNFRSF12Aaa28-80) (Human, UniProt Q9NP84 28-80); assay: SPR (Biacore T100), IgG captured, TPP-2305 injected, 1:1 model
T3 construct: monomeric extracellular domain, bought; also called purified recombinant human TWEAKR protein; soluble monomeric TWEAKR
Method: Binding affinities of anti-TWEAKR antibodies were determined by surface plasmon resonance analysis on a Biacore T100 instrument (GE Healthcare Biacore, Inc.). Antibodies were immobilized onto a CM5 sensor chip through an indirect capturing reagent, anti-human IgG(Fc). […] Anti-TWEAKR antibodies were injected at a concentration of 10 μg/ml at 10 μl/min for 10 sec.
Sensorgrams were generated after in-line reference cell correction followed by buffer sample subtraction. The dissociation equilibrium constant (KD) was calculated based on the ratio of association (kₒₙ) and dissociation rated (koff) constants, obtained by fitting sensorgrams with a first order 1:1 binding model.

[12] = target: T4, TPP-599 (HUMAN-TNFRSF12Aaa28-80-hIgG1-Fc) (human); assay: ELISA, TWEAKR-Fc coated 62 ng/ml, biotin-IgG titrated; + means IC50 1 to 150 pM;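 also: biotinylated IgG binding to immobilized TWEAKR-Fc muteins, detected with Streptavidin-HRP and Amplex Red, IC50 derived from fitted dose-response curves of twofold serial dilutions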
T4 construct: dimeric; also called human TWEAKR Fc; TWEAKR-Fc
Method: (§2) To collect dose-response data, the different TWEAKR-Fc muteins were coated with a low concentration (62 ng/ml) in a 384-well Maxisorb ELISA plate and a serial 2fold dilution of biotinylated IgG starting with a concentration of 100 nM was used as soluble binding partner. Detection was done with Streptavidin-HRP and Amplex Red.
(§3) The dose-response data were fitted and IC50s determined.

[13] = target: TPP-1986 (hTNFRSF12Aaa28-80-T33Q-hIgG1-Fc) (human); assay: as above
Method: as §2, §3

[14] = target: TPP-1987 (hTNFRSF12Aaa28-80-S40R-hIgG1-Fc) (human); assay: as above
Method: as §2, §3

[15] = target: TPP-1988 (hTNFRSF12Aaa28-80-M50A-hIgG1-Fc) (human); assay: as above
Method: as §2, §3

[16] = target: TPP-2683 (hTNFRSF12Aaa28-80-R56P-hIgG1-Fc) (human); assay: as above
Method: as §2, §3

[17] = target: TPP-1989 (hTNFRSF12Aaa28-80-H60K-hIgG1-Fc) (human); assay: as above
Method: as §2, §3

[18] = target: TPP-1990 (hTNFRSF12Aaa28-80-L65Q-hIgG1-Fc) (human); assay: as above
Method: as §2, §3

[19] = target: T5, TPP-2202 (TWEAKR-ECD-28-80-hIgGFc-His) (human); assay: ELISA, TPP-2202 coated at 1 µg/ml, biotinylated IgG at 0.08 µg/ml (open bar) and 0.3 µg/ml (filled bar), Streptavidin-HRP, Amplex Red
T5 construct: dimeric; also called TWEAKR-Fc fusion protein; full ectodomain 28-80
Method: (§4) Detection was done with Streptavidin-HRP and Amplex-Red substrate.
(§5) To analyze for binding, 1 μg/ml of the respective dimeric TWEAKR-Fc construct were coated and, 0.3 μg/ml and 0.08 μg/ml of biotinylated IgG were used as soluble binding partner. Detection was done with Streptavidin-HRP and Amplex-Red substrate.

[20] = target: T6, TPP-2203 (TWEAKR-ECD-34-68-hIgGFc-His) (human); assay: ELISA, TPP-2203 coated at 1 µg/ml, biotinylated IgG at 0.08 µg/ml (open bar) and 0.3 µg/ml (filled bar), Streptavidin-HRP, Amplex Red
T6 construct: dimeric; also called TWEAKR(34-68)-Fc fusion protein; truncated ectodomain 34-68
Method: as §4, §5

T5 sequence (chain, as listed by the source limits assumed): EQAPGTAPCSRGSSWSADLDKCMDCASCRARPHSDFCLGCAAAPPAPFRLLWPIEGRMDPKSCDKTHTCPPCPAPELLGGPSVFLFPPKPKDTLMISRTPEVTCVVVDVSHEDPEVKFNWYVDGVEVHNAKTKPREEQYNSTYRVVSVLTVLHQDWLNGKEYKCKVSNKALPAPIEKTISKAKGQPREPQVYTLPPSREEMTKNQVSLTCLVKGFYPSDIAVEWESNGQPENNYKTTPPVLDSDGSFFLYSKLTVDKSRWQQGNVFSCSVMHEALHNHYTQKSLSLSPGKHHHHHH

Row | Binder | Fold induction of Caspase 3/7, 786-O cells, 100 ug/ml [1] [fold] | Fold induction of Caspase 3/7, HT-29 cells, 100 ug/ml [1] [fold] | Fold induction of Caspase 3/7, NCI-H322 cells, 100 ug/ml [1] [fold] | % binding normalized by wt binding signal [2] [%] | Kd [11] [nM] | koff [11] [s⁻¹] | kon [11] [M⁻¹ s⁻¹] | further results
1 | B1 | 1.88 | 2.53 | 1.94 | < 5 | – | – | – | –
2 | B2 | 2.11 | 2.7 | 1.98 | < 5 | – | – | – | IL-8 release from A375 cells at 100 ug/ml, % of the activation by 300 ng/ml TWEAK ligand [3]: 129%
3 | B3 | 1.76 | 2.37 | 1.89 | < 5 | – | – | – | –
4 | B4 | 2.22 | 2.41 | 2.01 | < 5 | – | – | – | –
5 | B5 | 1.43 | 2.54 | – | < 5 | 22.1 | 0.09 | 4.1e+06 | % Inhibition of proliferation, A253 cells, 72h, 100 ug/ml [4]: > 100%; % Inhibition of proliferation, HT-29 cells, 24h, 100 ug/ml [4]: > 100%; GeoMean of Fluorescence minus GeoMean with the secondary antibody only [5]: 255; GeoMean of Fluorescence minus GeoMean with the secondary antibody only [6]: 875; GeoMean of Fluorescence minus GeoMean with the secondary antibody only [7]: 1720; GeoMean of Fluorescence minus GeoMean with the secondary antibody only [8]: 18200; GeoMean of Fluorescence minus GeoMean with the secondary antibody only [9]: 2180; GeoMean of Fluorescence minus GeoMean with the secondary antibody only [10]: 160
6 | B6 | – | – | – | < 5 | 206 | 0.91 | 4.4e+06 | –
7 | B7 | – | – | – | – | 0.5 | 0.00122 | 2.31e+06 | binding result [12]: binds; binding result [13]: binds; binding result [14]: binds; binding result [15]: binds; binding result [16]: binds; binding result [17]: binds; binding result [18]: binds; binding result [19]: binds; binding result [20]: binds
8 | B8 | – | – | – | < 5 | 24.5 | 0.13 | 5.1e+06 | –
9 | B9 | – | – | – | < 5 | 12.1 | 0.1 | 8.4e+06 | –
10 | B10 | – | – | – | – | 1.7 | 0.0285 | 1.64e+07 | binding result [12]: binds; binding result [13]: binds; binding result [14]: binds; binding result [15]: binds; binding result [17]: binds; binding result [18]: binds
11 | B11 | – | – | – | – | 0.7 | – | – | –
